Source: PMC12670495 (Molecular Pharmaceutics, 2025)
Blank lines part the entries; values can stand above or below the binder they belong to.

Columns and labels:
Conditions in all cases: both partners purified
[1] = target: T1, Prostate-specific membrane antigen (PSMA), human (Homo sapiens, UniProt Q04609); assay: SPR; Biacore T200, multicycle kinetics; antibody captured on a Protein G chip (~50 RU), PSMA as analyte 25 to 1.5625 nM in HBS-EP+, 35 μL/min, association 600 s, dissociation 2400 s; 1-to-1 binding model with global Rmax
T1 construct: human FOLH1 (PSMA), UniProt Q04609; The methods of the multicycle SPR say only 'PSMA (R&D Systems)'; R&D Systems' recombinant human PSMA is, as far as recalled, the extracellular domain (about K44-A750) with a His tag; also called Human FOLH1; human PSMA; source: bought: R&D Systems (multicycle SPR)

mouse PSMA [2] = target: T2, mouse PSMA (Mus musculus, UniProt O35409); assay: SPR; Biacore T200, single-cycle kinetics at 25 °C; DOTA-conjugated antibodies captured on a Protein G chip (~50 RU), PSMA as analyte 12.5 to 50 nM in HBS-EP+, 40 μL/min; Langmuir (1:1) model
T2 construct: PSMA (Folh1) of mouse; also called murine PSMA
T2 sequence (O35409 whole entry): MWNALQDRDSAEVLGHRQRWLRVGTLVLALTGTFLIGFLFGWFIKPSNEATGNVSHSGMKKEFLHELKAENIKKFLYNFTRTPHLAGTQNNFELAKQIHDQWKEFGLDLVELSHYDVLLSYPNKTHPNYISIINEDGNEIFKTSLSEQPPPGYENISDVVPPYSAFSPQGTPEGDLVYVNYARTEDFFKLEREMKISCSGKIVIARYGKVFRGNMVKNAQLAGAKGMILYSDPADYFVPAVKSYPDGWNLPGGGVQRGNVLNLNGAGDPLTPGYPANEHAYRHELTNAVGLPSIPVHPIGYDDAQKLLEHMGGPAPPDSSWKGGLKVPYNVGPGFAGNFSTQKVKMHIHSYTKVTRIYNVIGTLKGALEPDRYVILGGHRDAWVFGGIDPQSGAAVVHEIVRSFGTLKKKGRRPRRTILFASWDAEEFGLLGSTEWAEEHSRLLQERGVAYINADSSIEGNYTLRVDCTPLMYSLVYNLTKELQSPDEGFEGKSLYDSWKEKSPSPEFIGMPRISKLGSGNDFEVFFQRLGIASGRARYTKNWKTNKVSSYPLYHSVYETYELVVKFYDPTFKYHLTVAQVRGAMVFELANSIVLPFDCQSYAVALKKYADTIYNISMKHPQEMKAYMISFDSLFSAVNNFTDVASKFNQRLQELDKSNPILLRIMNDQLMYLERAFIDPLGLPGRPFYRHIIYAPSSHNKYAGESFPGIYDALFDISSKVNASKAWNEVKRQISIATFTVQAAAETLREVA

mouse PSMA [3] = target: T3, mouse PSMA (Mus musculus, UniProt O35409); assay: SPR; Biacore T200, single-cycle kinetics, 25 °C, HBS-EP+; antibody-DOTA captured on a Protein G chip (~50 RU); PSMA as analyte, three-point 2-fold dilution 12.5-50 nM, 40 uL/min; association 200 s, dissociation 1500 s; Langmuir 1:1 fit
T3 construct: mouse prostate-specific membrane antigen (PSMA), purified protein; also called PSMA (Mouse); murine PSMA
T3 sequence (O35409 whole entry): as above

B3: ANT4044-DOTA (antibody, V domains shown)
VH: EVQLVQSGAEVKKPGASVKVSCKASGYTFTEYTIHWVRQAPGKGLEWIGNINPNNGGTTYNQKFEDRVTITVDKSTSTAYMELSSLRSEDTAVYYCAAGWNFDYWGQGTTVTVSS
VL: DIQMTQSPSTLSASVGDRVTITCKASQDVGTAVDWYQQKPGQAPKLLIYWASTRHTGVPDRFSGSGSGTDFTLTISRLQPEDFAVYYCQQYNSYPLTFGQGTKVDIK
notes: VH of ANT4044, as the heavy chain of m1; VK of ANT4044, as the light chain of m1; constant region of the light chain is not described, as the light chain of m1; source: CHO cells, transiently transfected, purified; conjugated with NHS-DOTA; copies: 2 + 2
- binding result (mouse PSMA [2]): no binding (tested: 12.5 to 50 nM tested)

B4: ANT4044-DOTA (antibody, V domains shown)
VH: B3 VH
VL: B3 VL
- binding result (mouse PSMA [3]): no binding (tested: 12.5 to 50 nM)

More lines, now with the values ahead:

- Kd [1]: 0.734 nM
- koff [1]: 7.88e-05 s⁻¹
- kon [1]: 107000 M⁻¹ s⁻¹
B1: ANT4044 IgG1 (antibody, V domains shown)
VH: B3 VH
VL: B3 VL
notes: VH of the humanized antibody ANT4044 (derived from murine J591); IgG1 heavy chain constant region, unmodified; VK of the humanized antibody ANT4044; constant region of the light chain is not described; IgG1; also called unmodified IgG1; ANT4044 unmodified IgG1 construct; source: CHO cells, transiently transfected; purified (Protein A, preparative SEC); copies: 2 + 2

- Kd [1]: 0.737 nM
- koff [1]: 7.48e-05 s⁻¹
- kon [1]: 101000 M⁻¹ s⁻¹
B2: ANT4044 IgG1 (H310A, H435Q) (antibody, V domains shown)
VH: B3 VH
VL: B3 VL
notes: VH of ANT4044, as the heavy chain of m1; IgG1 heavy chain constant region with H310A and H435Q; VK of ANT4044, as the light chain of m1; constant region of the light chain is not described, as the light chain of m1; IgG1; Lead construct; the introduction names 'this engineered PSMA antibody' TLX592 without saying which variant is meant; also called modified IgG1 (H310A, H435Q); PK-modified …

- Kd [1]: 0.743 nM
- koff [1]: 0.000104 s⁻¹
- kon [1]: 139000 M⁻¹ s⁻¹
B5: ANT4044 IgG4 (S228P, L235E, H310A, H435Q) (antibody, V domains shown)
VH: B3 VH
VL: B3 VL
notes: VH of ANT4044, as the heavy chain of m1; IgG4 heavy chain constant region with S228P, L235E, H310A and H435Q; VK of ANT4044, as the light chain of m1; constant region of the light chain is not described, as the light chain of m1; IgG4; also called modified IgG4; source: CHO cells, transiently transfected; purified (Protein G, preparative SEC); copies: 2 + 2
